According to the domain aggregation screens of Martell et al. (2025):

Experiment: soluble fraction after stress (log2 fold change); higher = more stays soluble; pooled small domains, quantitative proteomics
Settings: stress: pH 4
How it was run: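 How much of each domain stays soluble after acid stress, expressed as a fold change, is used to gauge aggregation propensity. Pooled custom libraries of small domains underwent pH 4 stress before high-throughput quantitative proteomics. A higher log2 value means more of the domain stayed soluble.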

Sequence	soluble fraction (log2)
HMPPITIVPNDNGVPIIRSQTPEISTAVNVELKAAGINTHTIDGTSIRVPKAQAQVAQQIVSRVNTRFT	0.266
HMAAQLAHVPAVTGRPLAEAQRILADNRLNAQVTQQPVAEPKLDGVVIAQKITEGTRTMRGATVPLIVGKY	0.148
HMDVNAQAGYDKLQSNQLDGARHDYEQALKTDPNNVDTLLALAAIAQRQGRSADADGYRQRAIDAD	-0.245
HMEILTLEELKRLMAKAKLKQNQISGHAGVSKQQISMILAGKRNITKDVSDNLKANLAEYFP	0.107
HMTSRFITTEEGTLYVDADGRKVSGWQTIDGSRYYFDEHGIRQSGTIEVNGETYVLDEDGVL	-1.51
HMEENIKKDIEVPNIEGLTIDEAKKRLKEVNLNISIEDMEEKEGTEIITQQLPKAGIKVKEGVAIIAY	-0.211
HMNLEIGAIIKSLRAKHKYTQEQLSAFLGVTPQAVSRWEAGNGYPDIELLPAIARFFEVSTDELLGL	-1.32
HMTELVIPDYFSKALAKNKKAKQVFEAFAYSHRKEYLQWITEAKTEETRNKRMATAIEWIAEGKGRNWKYA	≥ 0.43
HMGMVKLNEEYLEKVKKHRKELHITQLQISKKLGWSLSRYQRFESGFYKEIEDDAPKKIKEEFGIDYSLL	-0.231
HMKIQTYEDFRNAYPDIQGSLFGSAERYKTDLDWGDVAAKYDADEELKNVRNIFQLVRRYEQKYS	-0.643
HMKGIHDYITKDGLRVVKVHYSADPDKDVTTVEGKKWMAKALLGYPGGLEGAKWRREMEIDFNA	-0.258
HMKPSNRSYPTALRMEVIGIIRERYADFGPTLAGEKLAELHGIHLGRETIRQWMMAAGLWKDRR	-0.759
HMGQKETIVDLLKTNGTMTQLALAEAIYGDKNHGPNIYSVLMGRVNSGAVLRTGSQPAYYSLSG	0.22
HMPDYYAILEVERTADAKTIKAAYRKLALAYHPDRNPGDQAAEERFKQINEAYAVLSDPEKRARYDRYGSV	0.139
HMIPPGTITIEGAITKVPVFLDGKQIGTVPLTKEDVEPGKYRIRVLGVGRVITIDPGEKENVLFSGEDLGL	-0.401
HMISLPSYIREEATEVYNRLHDLGLEYTSLDVNDDSIPKGYVVRTVPEAGASVPAGQVVTVYVSLG	-0.231
HMSKYGIAYSEVLEILKHIPIEDYNKIPRNEIELFETYADKDFTFNYDSSKTLEEQNVSNITKGIIIL	-0.465
HMTKSSAYLSAEKLINKKQYSDAIVKLNDALVTDSKNADIYNYLGFSHRKLGKMEDAAFFYNKALE	-0.165
HMSINISFEPADHLGKDVIFIRFPYDNEWIQRVRKLKGAKWSQSQRAWHVPDTEHYRTLFQLPQKI	-0.704

Sequence	soluble fraction (log2)
HMEEIPYGVISAKAGAAAYDYIKKSIELGIEKKIDGVATAPIQKEAIHMAGISYIGHTEMYQGIT	0.0683
HMAEPTLNERLREALSDPAKLKIAKAIKAKYPIITARDIDTFLNMHEKDIENGADPMDEFEEFFHANY	-0.132
HMKPDWLSDGRLIPDEVMSHLRKIAVHAVEEMGYSPEDVIKILGLSRNTIYDWLKRFREHGYEGLDTKK	-0.738
HMHIDQVIRERRLALGLTQEELANKIGVSAPAVSKWEKRVSYPDITLLPALARILGTDVNTLLTFS	-0.309
HMGAVGISQKVTSLETAVLGKNFAKDPLIDRVARLEQTVLPKQAEANASLSLPERVSKLLEKVPIAAG	0.136
HMDKPIFTLRENEVLYWASMGKTYAEIATIVGISVRTVKFHMGNVVSKLGVSNARQAIRLGVELDLITPMQ	-1.76
HMQIVHKHLQLQPDQGALRAALYSHKAVVAEQVNEQGAINLEIKLAESDFLRLLKSSGLKLQDLVSLS	-1.16
HMGREVVVPNLAGIEKEVALDLLKKNRLGGMITGTRFSSDFPAGQVIQQMPEAGSRVKVGKQVKLVLSEG	0.334
HMIMTTKVSGIMFDKFNPSAILNINGMDYLVRSGDIINGYKILSIGQETVTVQYGANVYKASVG	-0.603
HMSGPDGLTEREIEVLRLLASGLSNRAIGERLYISTNTAANHVRSILLKTGAANRTQAAMYAADHEML	0.0798
HMGETRWTYDDFGNILTEKAAPYSATEFLGKTYTYDTDNRYLKTVTDALGRTTTTLSYDKYGNPLSVMD	-0.357
HMGNIYKALLGKLEKQLGFLPEGTKLPPEQELAEKFGVSKPTLRRALAELAVRGIIVKQNGIGSVVAGS	≥ 0.43
HMDSEEVYQMTKHKMDAAQISVAKRIHINLVLVKLLELHHLGYDLRHYHAQHHAFIKRLNLPEYFRFD	-0.832
HMNDIDRFIEALIEQDTLPGTNSRINEDVISEMKMMTSVEDIKAYAIATVGLTGGQVNNALINSGL	-1.61
HMQKAQEYILVDIKGEVQTPGVYKLPVNSRVIDAIEASGGLTKKAVTTYINLSKTLKDENVIIINKKSEL	-0.0717
HMTTKEEAAYQAIRSAIIDGELKPGQSVTIRDLASRFDLGRTPITDAMKHLALDGWLETTTGVGTRV	-0.15
HMDRADIDAVDAEWVRATMERLGLRAKHIESHTGISKSTLSILLNGHRPLTRWHKIAFYYLFKHIEF	-1.82
HMDALTLSIDAQGALYWNGQPVSRELAAQRFVEAAAQRPQPELHLRADQNVAYRHVAMTLADASRAGLTR	-0.632
HMITKENYLEKIKEIKVNEFPASMRELYDFFNEATRNGTDWSAYEEGNVKYVVDAYLERLNLLYKSN	-0.892
